Measurements reported in patent US20240409645A1.

Tests used:
mouse IL-2Rγ (mouse) = target: T1, mouse IL-2Rγ (mouse) (UniProt P34902); assay: P.E. binding ELISA
T1 sequence (looked up): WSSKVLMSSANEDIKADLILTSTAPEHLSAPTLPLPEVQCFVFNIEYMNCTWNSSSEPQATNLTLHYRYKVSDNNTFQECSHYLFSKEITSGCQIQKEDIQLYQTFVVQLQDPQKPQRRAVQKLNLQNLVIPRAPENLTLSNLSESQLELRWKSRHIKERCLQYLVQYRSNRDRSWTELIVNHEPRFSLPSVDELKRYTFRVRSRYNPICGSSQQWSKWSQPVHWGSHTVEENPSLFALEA

[1] = target: cynomolgus monkey IL-2Rγ/CD132 subunit (cynomolgus monkey); assay: ELISA, monovalent; EC50 cyno vs human subunit
[2] = target: cynomolgus monkey IL-2Rγ/CD132 subunit (cynomolgus monkey); assay: ELISA, monovalent VHH-hFc
[3] = target: T2, human common cytokine receptor γ-chain (γc; IL-2Rγ; CD132), recombinant protein (human) (UniProt P31785); assay: ELISA, monovalent VHH-hFc
T2 sequence: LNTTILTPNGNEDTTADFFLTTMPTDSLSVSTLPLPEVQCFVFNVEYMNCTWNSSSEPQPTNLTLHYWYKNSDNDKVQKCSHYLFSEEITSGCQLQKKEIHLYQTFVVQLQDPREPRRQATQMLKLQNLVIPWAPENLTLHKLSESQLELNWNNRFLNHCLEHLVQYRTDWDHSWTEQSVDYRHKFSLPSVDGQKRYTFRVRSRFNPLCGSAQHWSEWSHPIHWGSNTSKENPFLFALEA

mouse IL-2Rα (mouse) = target: T3, mouse IL-2Rα (mouse) (UniProt P01590); assay: P.E. binding ELISA
T3 sequence (looked up): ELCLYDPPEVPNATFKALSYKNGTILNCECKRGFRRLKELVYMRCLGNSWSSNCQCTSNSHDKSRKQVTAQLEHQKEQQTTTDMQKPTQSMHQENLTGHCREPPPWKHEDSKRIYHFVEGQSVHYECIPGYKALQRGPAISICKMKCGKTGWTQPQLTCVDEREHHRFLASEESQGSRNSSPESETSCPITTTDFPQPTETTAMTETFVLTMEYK

mouse IL-2Rβ (mouse) = target: T4, mouse IL-2Rβ (mouse) (UniProt P16297); assay: P.E. binding ELISA, mouse IL-2Rβ coated
T4 sequence (looked up): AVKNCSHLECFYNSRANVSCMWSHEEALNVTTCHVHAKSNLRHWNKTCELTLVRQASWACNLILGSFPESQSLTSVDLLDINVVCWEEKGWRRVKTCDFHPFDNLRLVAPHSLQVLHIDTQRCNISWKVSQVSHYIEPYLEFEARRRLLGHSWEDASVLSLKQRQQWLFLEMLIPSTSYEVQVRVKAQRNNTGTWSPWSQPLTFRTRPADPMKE

[4] = target: T5, mouse common cytokine receptor γ-chain (IL-2Rγ) (mouse) (UniProt P34902); assay: P.E. binding ELISA
T5 sequence (looked up): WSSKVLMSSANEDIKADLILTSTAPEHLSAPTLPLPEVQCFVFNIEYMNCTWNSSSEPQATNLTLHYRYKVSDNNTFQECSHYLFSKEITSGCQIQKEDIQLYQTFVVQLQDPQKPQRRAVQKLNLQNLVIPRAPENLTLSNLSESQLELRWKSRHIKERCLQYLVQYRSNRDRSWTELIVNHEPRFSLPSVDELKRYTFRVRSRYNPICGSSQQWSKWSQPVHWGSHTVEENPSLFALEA

Sequence of cynomolgus monkey IL-2Rγ/CD132 subunit (cynomolgus monkey) (chain, as listed by the source): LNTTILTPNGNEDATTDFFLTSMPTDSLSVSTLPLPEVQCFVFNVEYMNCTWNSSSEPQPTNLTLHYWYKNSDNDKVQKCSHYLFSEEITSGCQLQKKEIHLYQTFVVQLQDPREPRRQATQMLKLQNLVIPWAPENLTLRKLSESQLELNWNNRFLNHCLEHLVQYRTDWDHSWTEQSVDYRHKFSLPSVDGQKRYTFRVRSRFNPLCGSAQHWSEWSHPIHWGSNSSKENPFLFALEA

Fold change [1]	EC50 [2]	EC50 [3]	also measured	Binder
–	–	–	OD450 nm (mouse IL-2Rγ (mouse)): 0.05 OD450 nm	29-MP04H02 VHH (periplasmic extract) (VHH) VHH: QVQLVESGGGLVQAGGSLRLACVASGLTFDNYYMGWFRQAPGKEREFVAGIIWNGDHTAYADSIKGRFTISRDNAKNTAYLRMNSLKPEDTAVYYCAATFWIERATTPDIGQYAYWGQGTQVTVSS
0.8 fold	534 pM	683 pM	–	29-MP04H02 VHH-hFc, monospecific monovalent (Fc fusion, part only; not given: Both Fc arms and linker, not shown: another chain or arm of the molecule; a dimerising Fc or GST; large carriers; small tags and cut ends) VHH: QVQLVESGGGLVQAGGSLRLACVASGLTFDNYYMGWFRQAPGKEREFVAGIIWNGDHTAYADSIKGRFTISRDNAKNTAYLRMNSLKPEDTAVYYCAATFWIERATTPDIGQYAYWGQGTQVTVSS
–	–	–	OD450 nm (mouse IL-2Rα (mouse)): 0.046 OD450 nm	5-MP01F05 VHH (periplasmic extract) (VHH) VHH: EVQLVESGGGLVQAGGSLRLSCAASIRAFTTWSMAWFRQAPGKEREYVARINVSGSVTYYADFVKGRFTISRDNAKKTMYLEMNNLKPEDTALYYCAADRTGVGTNDYNYWGQGTQVTVSS
1.2 fold	723 pM	620 pM	–	28-MP04D02 VHH-hFc, monospecific monovalent (Fc fusion, part only; not given: Both Fc arms and linker, not shown: another chain or arm of the molecule; a dimerising Fc or GST; large carriers; small tags and cut ends) VHH: QVQLVESGGGLVQAGGSLRLSCAASGRTLSRYAMGWFRQAPGKEREFVTANSWGGDTYYADSVQGRFTFSRDNAKNTVYLQMNSLQPEDTAVYYCAAAPTSFATTAYSGSNSYAYWGQGTQVTVSS
1.2 fold	97 pM	81 pM	–	37-MP07F09 VHH-hFc, monospecific monovalent (Fc fusion, part only; not given: Both Fc arms and linker, not shown: another chain or arm of the molecule; a dimerising Fc or GST; small tags and cut ends) VHH: QVQLVESGGGLVQAGGSLRLSCAASGRTLSRYAMGWFRQAPGKEREYVAIDSWGGDTFYADSVEGRFTFSRDNAKNEVYLQMNSLQPEDTAVYYCAGAPTSFATTAYSSSNSYRYWGQGTQVTVSS
–	–	–	OD450 nm (mouse IL-2Rγ (mouse)): 0.045 OD450 nm	35-MP07G01 VHH (periplasmic extract) (VHH) VHH: QVQLQESGGGLVQGGGSLRLSCAASGGIFSSYAMGWFRQAPGKEREFVAAISRSGRSTNYADSVKGRFTISRDNAKSTVYLQMNSLKPEETAVYYCAAGRYYNSAYDPSPGDFGSWGHGTQVTVSS
–	–	–	OD450 nm (mouse IL-2Rγ (mouse)): 0.05 OD450 nm	32-MP04A08 VHH (periplasmic extract) (VHH) VHH: QVQLVESGGGLVQAGGSLRLSCAASGRTFGSTAVGWFRQVPGKEREFVSAINRSGSATTYADSVKGRFTISRDNAKNTVYLQMNSLTPEDTGVYYCAADSLPYGRPYYFQRSAGEYDYWGQGTQVTVSS
–	–	–	OD450 nm (P.E. binding ELISA) (mouse IL-2Rβ (mouse)): 0.047 OD450 nm	FJ1427 P035MP06A08 (VHH) VHH: EVQLVESGGGLVQAGESLRLSCAASGQYFSTYSMAWFRRTPGKEREFVTIISESGGIKEYVDSVKGRFTVSRDNAKNTVYLQMNSLKPEDTAVYYCAAARDWFARNEYQYDYWGQGTQVTVSS
–	–	–	PE binding ELISA OD [4]: 0.049 OD450 nm	FJ1427_P035MP04F12 (VHH) VHH: QVQLQESGGGWVQVGESLRLSCVPSGRTFVSGIMGWFRQAPGKEREFVARIILNNNSTRYTDSVKGRFTISRDSAKNTMYLQMNTLRPEDTAVYYCAARDRYGSGNSLSPSAYDYWGQGTQVTVSS
–	–	–	PE binding ELISA OD [4]: 0.044 OD450 nm	FJ1427_P035MP07C02 (VHH) VHH: EVQLVESGGGWVQVGESLRLSCAPSGRTFVSGIMGWFRQTPGKEREFVARIILNNNSTRYTDSVKGRFTISRDSAKNTMYLQMNTLRPEDTAVYYCAARDRYGSGNSLSPSAYDYWGQGTQVTVSS
–	–	–	OD450 nm (mouse IL-2Rγ (mouse)): 0.048 OD450 nm	27-MP04G01 VHH (periplasmic extract) (VHH) VHH: QVQLVESGGGLVQAGGSLTLSCAAPGRTFGTDVVGWFRQAPGKEREFVASISRSGDGIYYDDSVKGRFTISRNNAWNTVNLQMNSLKVEDTAVYYCAAGDGWSTYDYWGQGTQVTVSS
1 fold	153 pM	155 pM	–	27-MP04G01 VHH-hFc, monospecific monovalent (Fc fusion, part only; not given: Both Fc arms and linker, not shown: another chain or arm of the molecule; a dimerising Fc or GST; large carriers; small tags and cut ends) VHH: QVQLVESGGGLVQAGGSLTLSCAAPGRTFGTDVVGWFRQAPGKEREFVASISRSGDGIYYDDSVKGRFTISRNNAWNTVNLQMNSLKVEDTAVYYCAAGDGWSTYDYWGQGTQVTVSS
1.5 fold	160 pM	107 pM	–	38-MP07A11 VHH-hFc, monospecific monovalent (Fc fusion, part only; not given: Both Fc arms and linker, not shown: another chain or arm of the molecule; a dimerising Fc or GST; small tags and cut ends) VHH: QVQLVESGGGLVQAGGSLRLSCAASGRSLSRDAMGWFRQAPGKEREFVAVMSWGGDTFYTDSVEGRFTFSRDNAKNAVYLEMNDLQPEDTAVYYCAAAPTSFATTAYSSSNSYSYWGRGTQVTVSS
–	–	–	OD450 nm (mouse IL-2Rα (mouse)): 0.046 OD450 nm	2-MP01A02 VHH (periplasmic extract) (VHH) VHH: QVQLVESGGGLVQPGGSLRLSCATSGFTFRNNFMSWVRQAPGKGLEWVSTISYGGESTTYAESVKGRFTISRDNAKNTLYLQMNNLKPEDTAVYYCAKATSYDSIRSGSRGQGTQVTVSS
–	–	–	OD450 nm (mouse IL-2Rα (mouse)): 0.045 OD450 nm	8-MP01C12 VHH (periplasmic extract) (VHH) VHH: QVQLVESGGGLVQPGGSLRLSCATSGFTFSNNFMSWVRQAPGKGLEFVSTISYGGESTTYAEAVKGRFTISRDNAKNTLYLQMNNLKPEDTAIYYCAKATSYTSIRGAPRGQGTQVTVSS
–	–	–	OD450 nm (P.E. binding ELISA) (mouse IL-2Rβ (mouse)): 0.046 OD450 nm	FJ1427_P035MP06F09 (VHH) VHH: QVQLVESGGGLVQAGGSLTLSCAASGRAFSNYPVGWFRQAPGKEREFVAAITWLSGSTLYADSVEGRFTISRDNAKNTVYLLMSSLKPEDTALYFCAAALKTITRGQNDYSYWGQGTQVTVSS
1.2 fold	158 pM	132 pM	–	34-MP04A12 VHH-hFc, monospecific monovalent (Fc fusion, part only; not given: Both Fc arms and linker, not shown: another chain or arm of the molecule; a dimerising Fc or GST; large carriers; small tags and cut ends) VHH: QVQLVESGGGLVQAGSSLRLSCAASGRTLSRLAMGWFRQAPGKEREFVAVNSWGGDTFYADSVEGRFTYSRDNAKSAVYLQMNSLQPEDTAVYYCAAAPTSFATTAYSSSNSYAYWGQGAQVTVSS
